Earlier results as cited in paper PMC3079778.

How the values were obtained:
[1] = molecular target: CYP1A2 (Oryctolagus cuniculus) (UniProt P00187); experiment: FRET
[2] = molecular target: CYP2B4 (Oryctolagus cuniculus) (UniProt P00178); experiment: FRET
UniProt P00178, sequence (P00178 whole entry): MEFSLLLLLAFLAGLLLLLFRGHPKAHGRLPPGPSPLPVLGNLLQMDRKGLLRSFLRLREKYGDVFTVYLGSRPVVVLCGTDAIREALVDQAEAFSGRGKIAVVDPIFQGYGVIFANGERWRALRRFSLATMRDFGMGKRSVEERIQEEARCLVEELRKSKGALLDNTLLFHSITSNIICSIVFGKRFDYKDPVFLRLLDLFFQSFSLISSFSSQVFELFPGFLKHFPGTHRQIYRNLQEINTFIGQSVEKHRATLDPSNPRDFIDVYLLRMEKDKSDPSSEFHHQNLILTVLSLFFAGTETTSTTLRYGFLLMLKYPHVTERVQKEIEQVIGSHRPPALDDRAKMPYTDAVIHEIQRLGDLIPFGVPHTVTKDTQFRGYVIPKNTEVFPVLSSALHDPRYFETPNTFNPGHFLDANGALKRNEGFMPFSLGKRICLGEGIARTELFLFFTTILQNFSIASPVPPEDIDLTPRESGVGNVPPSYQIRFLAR

UniProt P00187, sequence (P00187 2-516): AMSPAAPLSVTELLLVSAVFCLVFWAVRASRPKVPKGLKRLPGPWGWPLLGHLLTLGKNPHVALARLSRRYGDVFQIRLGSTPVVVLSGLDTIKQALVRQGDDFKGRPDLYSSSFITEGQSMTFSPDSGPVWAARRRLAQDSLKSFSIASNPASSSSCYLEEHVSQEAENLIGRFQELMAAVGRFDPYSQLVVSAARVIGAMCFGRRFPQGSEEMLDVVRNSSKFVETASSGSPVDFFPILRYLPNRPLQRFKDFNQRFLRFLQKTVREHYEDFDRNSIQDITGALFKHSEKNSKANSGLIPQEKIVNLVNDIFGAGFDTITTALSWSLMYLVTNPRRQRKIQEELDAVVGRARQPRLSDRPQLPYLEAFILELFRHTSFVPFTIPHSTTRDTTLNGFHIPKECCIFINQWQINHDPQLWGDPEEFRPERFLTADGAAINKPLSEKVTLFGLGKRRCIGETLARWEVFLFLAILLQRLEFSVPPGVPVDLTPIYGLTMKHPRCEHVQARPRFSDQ

CPR (from UniProt P00389)
Kd [1]: 0.04 µM | Kd [2]: 0.04 µM
